B1: E2 (antibody, V domains shown)
VH: EVQLQESGPSLVKPSQTLSLTCSVTGDSITSGYWNWIRKFPGDKLEYMGYISYTGTTYYNPSLKSRVSITRDTSKNQYYLQLHSVTTEDTATYYCARYPYGNFPFDYWGQGTTLTVSS
VL: SIVMTQTPKFLLVSAGDRVTITCKASQSVRNDVAWYQQRPGQSPKLLIFYASSRYIGAPDRFTGSGYGTDFTFTISTVQAEDLAVYFCQQDYSSPYTFGGGTTLEIK
notes: second hybridoma campaign
B2: E9 (antibody, V domains shown)
VH: QVQLVQSGAEVKKPGASVKVSCKASGGTFSSYSINWVRQAPGQGLEWMGWINPHSGATKYAERFQGRVTMTRDTSTSTVYMELSSLRSEDTAVYYCASAEEPYDILTGYYGGDAFDIWGQGTMVTVSS
VL: DIQMTQSPSSLSASVGDRVTITCRASQSISKYLNWYQQKPGKAPKLLIYDASNLQAGVPSRFSGSGSGTDFTLTISSLQPEDFATYYCQQANSFPYTFGQGTKLEIK
notes: phage campaign
B3: E11 (antibody, V domains shown)
VH: QVQLVQSGAEVKKPGSSVKVSCKASGGTFSSYDISWVRQAPGQGLEWMGGIIPTFVTPKYAQKFQGRVTITADESTSTAYMELSSLRSEDTAVYYCAREGPKQLEEYYYYYMDVWGKGTTVTVSS
VL: B2 VL with S26T, S28A, K31N, Y32S, N34A, D50A, N53Y, A56S, N92Y, Y96W
notes: phage campaign
B4: E14 (antibody, V domains shown)
VH: QVQLVQSGAEVKKPGSSVKVSCKASGYTFTNYDINWVRQAPGQGLEWMGGIIPIFGTANYAQKFQGRVTITADESTSTAYMELSSLRSEDTAVYYCTNGVGAGWFDLWGRGTLVTVSS
VL: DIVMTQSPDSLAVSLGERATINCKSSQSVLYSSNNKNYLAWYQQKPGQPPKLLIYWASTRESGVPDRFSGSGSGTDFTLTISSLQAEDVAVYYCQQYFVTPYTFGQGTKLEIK
notes: phage campaign
B5: A11 (antibody, V domains shown)
VH: QVQLVQSGAEVKKPGASVKVSCKASGYTFTSYYMHWVRQAPGQGLEWMGWINPNNGDTNYAQKFQGRVTMTRDTSTSTVYMELSSLRSEDTAVYYCARAGYFDWLLDYYGMDVWGQGTTVTVSS
VL: DIVMTQSPLSLPVTPGEPASISCRSSQSLLHSNGYNYLDWYLQKPGQSPQLLIYDASNLETGVPDRFSGSGSGTDFTLKISRVEAEDVGVYYCMQALQTPFGPGTKVDIK
notes: phage campaign; same VH/VL as E17
B6: E1 (antibody, V domains shown)
VH: EVQLVESGGGLVQPGESLKLSCESNEYEFPSHDMSWVRKTPEKRLELVAAINSDGGSTYYPDTMERRFIISRDNTKKTLYLQMSSLRSEDTALYYCARQLMGTGAMDYWGQGTSVTVSS
VL: DIQMTQSSSYLSVSLGGRVTITCKASDHINNWLAWYQQKPGNAPRLLISGATSLETGVPSRFSGSGSGKDYTLSITSLQTEDVATYYCQQYWSTPYTFGGGTKLEIK
notes: second hybridoma campaign
B7: E3 (antibody, V domains shown)
VH: QAYLQQSGAELVRSGASVKMSCKASGNTFTYYNLHWIRQTPGQGLEWIGYIFPGNGDAYYNQNFKGKATLTADTSSSTAYMQISSLTFEDSAVYFCARSPHYYGSGFDYWGQGTPLTVSS
VL: B6 VL with R18G, Y96W
notes: second hybridoma campaign
B8: E10 (antibody, V domains shown)
VH: EVQLLESGGGLVKPGGSLRLSCAASGFTFSNYAMSWVRQAPGKGLEWVAVIYSGADTYYADSVKGRFTISRDDSKNTLYLQMNSLKTEDTAVYYCTRDIGLNYGDYELFDYWGQGTLVTVSS
VL: DIVMTQSPLSLPVTPGEPASISCRSSQSLLHSNGYNYLDWYLQKPGQSPQLLIYDASNLETGVPDRFSGSGSGTDFTLKISRVEAEDVGVYYCMQGLQTPYVFGQGTKLEIK
notes: phage campaign
B9: E8 (antibody, V domains shown)
VH: QVQLVQSGAEVKKPGASVKVSCKASGYAFTNYDINWVRQAPGQGLEWLGWINPYSGDTNYAQKLQGRVTMTRDTSTSTVYMELSSLRSEDTAVYYCTIPSSYGEYYYYYMDVWGKGTTVTVSS
VL: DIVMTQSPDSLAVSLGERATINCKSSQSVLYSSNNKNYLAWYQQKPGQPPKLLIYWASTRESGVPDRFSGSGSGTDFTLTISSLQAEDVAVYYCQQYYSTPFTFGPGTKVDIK
notes: phage campaign
B10: A13 (antibody, V domains shown)
VH: QVQLVQSGAEVKKPGSSVKVSCKASGYLFSDYAMNWVRQAPGQGLEWVGWIIPNSGGTKFAQTFQGRVTITADESTSTAYMELSSLRSEDTAVYYCAREHGVVPADHYYYGMDVWGQGTTVTVSS
VL: EIVMTQSPATLSVSPGERATLSCRASQSISSSYLAWYQQKPGQAPRLLIYGASTRATGIPARFSGSGSGTEFTLTISSLQSEDFAVYYCQQYGRFPWTFGQGTKVEIK
notes: phage campaign; same VH/VL as E19
B11: E6 (antibody, V domains shown)
VH: QVQLVQSGAEVKKPGASVKVSCKASGGTFSSYAISWVRQAPGQGLEWMGWINPNSGGTNFAQKFQGRVTMTRDTSTSTVYMELSSLRSEDTAVYYCARGSGSYPLDYWGRGTLVTVSS
VL: B2 VL with S28D, K31T, Y32W, N34A, N53S, Q55E, A56S, A91T, N92Y, F94A
notes: phage campaign
B12: E16 (antibody, V domains shown)
VH: QVQLKESGPGLVAPSQSLSITCTVSGFSLSGYGVNWVRHLPGKGLEWLGMIWGDGHTDYNSALKSRLSISKDNSKSQVFLKMNSLQTDDTARYYCARDPRFYYGSGPYWYFDVWGAGTTVTVSS
VL: DIVMTQSQKFMSTSVGDRVNITCKASQNVGTAVAWYQQKPGQSPKLLIYSASNRYTGVPDRFTGSGSGTDFTLTISNMQSEDLADYFCQQYSSYPLTFAVGTKLELK
notes: B-cell cloning campaign (mice)
B13: E7 (antibody, V domains shown)
VH: EVQLLESGGGLVKPGGSLRLSCAASGFTFSSYWMSWVRQAPGKGLEWVSAISGSGGSTYYADSVKGRFTISRDDSKNTLYLQMNSLKTEDTAVYYCARHEEVTMVRGVIFAGGITNWGQGTTVTVSS
VL: B10 VL with Q27E, I29V, S30T, R94S, F95S, W97L, Q101G
notes: phage campaign
B14: E19 (antibody, V domains shown)
VH: B10 VH
VL: B10 VL
notes: phage campaign; same VH/VL as A13

Residue numbers refer to the chain shown, from its start. Numbers in names are those of the source.

T2 sequence (Q9UKJ0 20-227): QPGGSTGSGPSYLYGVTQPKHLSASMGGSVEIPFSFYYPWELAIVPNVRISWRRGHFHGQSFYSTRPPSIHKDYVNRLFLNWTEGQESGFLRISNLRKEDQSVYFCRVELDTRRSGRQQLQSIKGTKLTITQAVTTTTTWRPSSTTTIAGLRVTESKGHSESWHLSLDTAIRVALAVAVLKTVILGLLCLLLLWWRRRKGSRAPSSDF
cynomolgus PILRA, ectopically expressed on 293 cells (cynomolgus monkey), sequence (chain, as listed by the source): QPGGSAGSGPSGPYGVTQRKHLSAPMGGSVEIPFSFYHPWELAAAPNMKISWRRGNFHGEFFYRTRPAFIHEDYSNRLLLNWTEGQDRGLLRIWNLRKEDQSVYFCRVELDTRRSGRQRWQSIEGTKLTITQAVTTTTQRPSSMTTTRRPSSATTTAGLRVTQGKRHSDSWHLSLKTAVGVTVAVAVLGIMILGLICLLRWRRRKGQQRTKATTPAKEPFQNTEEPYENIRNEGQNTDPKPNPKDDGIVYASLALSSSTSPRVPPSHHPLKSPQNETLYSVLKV

In the first experiment the target is T1, human PILRA, G78 variant, ectopically expressed on 293 cells (human, UniProt Q9UKJ1 20-303).
T1 construct: the cells are labelled G78; also called hA G78 OE; hA
T1 sequence (Q9UKJ1 other isoform, or with tags, fused parts or gaps mutant): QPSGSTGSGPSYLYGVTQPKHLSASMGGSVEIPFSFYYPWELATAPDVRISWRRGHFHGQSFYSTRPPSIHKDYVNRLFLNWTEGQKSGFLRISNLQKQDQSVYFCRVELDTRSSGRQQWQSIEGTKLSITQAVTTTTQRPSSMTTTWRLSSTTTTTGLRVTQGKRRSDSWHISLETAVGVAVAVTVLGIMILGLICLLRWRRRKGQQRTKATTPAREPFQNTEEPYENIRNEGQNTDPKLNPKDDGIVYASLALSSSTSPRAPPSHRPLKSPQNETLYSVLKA
Put plainly: flow cytometry, 293 cells expressing target. How it is done:
(§1) Briefly, conditioned media containing antibodies were incubated with 293 cells for 30 min at 4° C., washed twice, and then detected with anti-mouse IgG Alexa 647.
A word on the EC50: it is the concentration needed to bring the measured effect to its halfway point. A high value points to lower potency in that assay. Regarding B1, the response was half-maximal at 0.4 µg/mL (EC50).

For the molecule B2, a half-maximal effect (EC50) was put at 1.2 µg/mL.

B3 gave an EC50 of 0.2 µg/mL.

For the molecule B4, a half-maximal response (EC50) required 0.4 µg/mL.

Turning to B5, the EC50 was found to be 0.6 µg/mL.

In turn, B6 gave an EC50 of 40.4 µg/mL.

In turn, B7 gave an EC50 of 0.22 µg/mL. This EC50 lies about 180-fold lower than the previous one.

Molecule B8 registered a 50% effective concentration (EC50) of 0.1 µg/mL.

On to B9, for which a half-maximal effect (EC50) was put at 0.4 µg/mL.

As to B10, the EC50 was found to be 0.8 µg/mL.

A further experiment concerns the target T2, human PILRB, ectopically expressed on 293 cells (human, UniProt Q9UKJ0 20-227).
T2 construct: also called hB
Description: flow cytometry, 293 cells expressing target. On the procedure: as §1
Background: Flow cytometry measures light scatter and fluorescence of single cells or particles in a stream.
B1 registered an EC50 of 2.9 µg/mL.

For B2, the binding result was “no binding”.

In turn, B3 came in with an EC50 of 5.9 µg/mL.

In the case of B11, the binding result is “no binding”.

B4: the binding result is “no binding”.

On to B5, for which a half-maximal response (EC50) required 1.1 µg/mL.

In the case of B6, the binding result is given as “no binding”.

B7 came in with an EC50 of 0.78 µg/mL.

Take B8: the binding result is given as “no binding”.

The molecule B9 returned an EC50 of 2.9 µg/mL.

In turn, B12 came in with an EC50 of 3.1 µg/mL. The EC50 values of the last two molecules are within 1.5-fold of each other.

B13: the binding result was “no binding”.

The molecule B10 showed an EC50 of 6.2 µg/mL.

A further experiment deals with cynomolgus PILRA, ectopically expressed on 293 cells (cynomolgus monkey). Description: flow cytometry, 293 cells expressing target. How it is done:
as §1
In turn, B1 came in with an EC50 of 92 µg/mL.

As to B2, the binding result is reported as “no binding”.

Consider B3, for which the binding result is “no binding”.

Take B11: the binding result is listed as “no binding”.

In turn, B4 registered an EC50 of 0.6 µg/mL.

On to B5, for which a half-maximal response (EC50) required 10.8 µg/mL.

As for B6, the binding result is listed as “no binding”.

On to B7, for which a half-maximal response (EC50) required 0.15 µg/mL.

Consider B8, for which the binding result is given as “no binding”.

For the molecule B9, the binding result was “no binding”.

Turning to B13, the binding result was “no binding”.

In turn, B10 displayed an EC50 of 0.8 µg/mL.

For another experiment, the target named is T3, murine PILRA, ectopically expressed on 293 cells (murine, UniProt Q2YFS3 32-302).
T3 construct: also called mA
T3 sequence (Q2YFS3 32-302): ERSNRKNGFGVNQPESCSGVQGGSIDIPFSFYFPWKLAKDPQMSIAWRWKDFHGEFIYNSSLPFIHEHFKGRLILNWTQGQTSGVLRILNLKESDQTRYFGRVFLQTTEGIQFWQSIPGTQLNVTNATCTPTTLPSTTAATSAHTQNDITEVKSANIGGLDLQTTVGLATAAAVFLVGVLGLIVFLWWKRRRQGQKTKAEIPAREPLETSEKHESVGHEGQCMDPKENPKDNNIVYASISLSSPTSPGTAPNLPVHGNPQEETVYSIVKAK
Description: flow cytometry, 293 cells expressing target. On the procedure: as §1
In the case of B1, the binding result is listed as “no binding”.

Consider B2, for which the binding result was “no binding”.

Take B3: the binding result is recorded as “no binding”.

In the case of B11, the binding result is given as “no binding”.

Regarding B4, the binding result was “no binding”.

As to B6, the binding result is “no binding”.

Consider B7, for which the binding result is listed as “no binding”.

B8: the binding result is on record as “no binding”.

Regarding B9, the binding result is listed as “no binding”.

For the molecule B12, the binding result is “no binding”.

As to B13, the binding result is “no binding”.

For B10, the binding result is reported as “no binding”.

In the next experiment the target is T4, murine PILRB, ectopically expressed on 293 cells (murine, UniProt Q2YFS2 29-224).
T4 construct: whole, on cells; also called mB
T4 sequence (Q2YFS2 29-224): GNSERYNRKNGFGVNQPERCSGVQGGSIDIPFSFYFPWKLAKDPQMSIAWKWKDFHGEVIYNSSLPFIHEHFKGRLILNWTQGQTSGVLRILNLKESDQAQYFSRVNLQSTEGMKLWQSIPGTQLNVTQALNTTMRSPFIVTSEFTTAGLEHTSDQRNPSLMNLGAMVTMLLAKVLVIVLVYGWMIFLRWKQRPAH
Description: flow cytometry, 293 cells expressing target. On the procedure:
as §1
For B1, the binding result was “no binding”.

As for B2, the binding result is “no binding”.

For the molecule B3, the binding result is reported as “no binding”.

With B11, the binding result is reported as “no binding”.

For B4, the binding result is recorded as “no binding”.

Consider B6, for which the binding result is given as “no binding”.

As for B7, the binding result was “no binding”.

Turning to B8, the binding result is listed as “no binding”.

With B9, the binding result was “no binding”.

Take B12: the binding result is “no binding”.

As for B13, the binding result is “no binding”.

Regarding B10, the binding result is “no binding”.

The target in another experiment is T5, human PILRA, c-term His-Avi tag (human, UniProt Q9UKJ1 20-197, limits assumed).
T5 construct: not shown: C-terminal His-Avi tag
T5 sequence (Q9UKJ1 20-197 limits assumed): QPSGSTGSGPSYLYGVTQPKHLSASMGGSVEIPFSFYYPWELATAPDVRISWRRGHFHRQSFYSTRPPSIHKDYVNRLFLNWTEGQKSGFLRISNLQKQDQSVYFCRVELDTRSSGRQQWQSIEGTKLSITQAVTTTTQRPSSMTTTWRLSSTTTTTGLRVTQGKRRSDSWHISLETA
Description: SPR (Biacore), antibody captured, PILRA as analyte. How it is done:
Experiments were performed to determine the kinetics of anti-PILRA antibody binding to human […]. The assay is depicted in FIG. 6. A rabbit anti-PILRA was used as a positive control, and H1 LALAPS was used as a negative control. Human PILRA (human PILRA, c-term His-Avi tag, 0.68 mg/mi) was used as the antigen. The running buffer was HBSTE/0.5% BSA, pH 7.4, and the regeneration solution was 10 mM glycine-HCl (pH 2.1). In the assay, antibodies were captured at 10 μg/ml by immobilized anti-huFc or anti-msFc on a Biacore CM5 chip, and human PILRA flowed at 33, 100, and 300 nM. The surface was regenerated after each analyte, and all curves were double-referenced with buffer injections.
In general terms: Surface plasmon resonance follows binding to a sensor surface in real time, without labels.
One may read the Kd as the equilibrium constant for the complex coming apart. Usually koff stands for the rate constant with which the complex falls apart. A high value points to a short-lived complex. Broadly, the kon is the second-order rate constant of association. High values mean fast association, low ones slow association. Regarding B5, the Kd was found to be 14.4 nM, the koff was 0.0014 s⁻¹ and the kon was 96000 M⁻¹ s⁻¹.

For B8, the Kd turned out to be 14.5 nM, the koff was 0.0016 s⁻¹ and the kon was 110000 M⁻¹ s⁻¹.

In turn, B14 showed an equilibrium dissociation constant (Kd) of 86.1 nM, a koff of 0.009 s⁻¹ and a kon of 100000 M⁻¹ s⁻¹.

The values above are taken from patent US20240425587A1 (Alector, published 2024).
